According to patent US20200317768A1 (published 2020):

B1: M103205H795-MY533 / M103202L889-SK1 (antibody, human IgG1, kappa)
heavy: QVTLKESGPVLVKPTETLTLTCTVSGIDLSHDDISWVRQAPGKGLEWVGIISYAGSTYYASWAKGRLTISKDTSKNQVVLTMTNMDPVDTATYYCARGVPAYSHGGDLWGQGTLVTVSSASTKGPSVFPLAPSSKSTSGGTAALGCLVKDYFPEPVTVSWNSGALTSGVHTFPAVLQSSGLYSLSSVVTVPSSSLGTQTYICNVNHKPSNTKVDKKVEPKSCDKTHTCPPCPAPEWLTGPVVFLFPPKPKDTLMISRTPEVTCVVVDVSDEDPEVKFNWYVDGVEVHNAKTKPREELYNSTYRVVSVLTVLHQDWLNGKEYKCKVSNKALPKPIEKTISKAKGQPREPQVYTLPPSREEMTKNQVSLTCLVKGFYPSDIAVEWESNGQPENNYKTTPPVLDSDGSFFLYSKLTVDKSRWQQGNVFSCSVMHEALHNHYTQKSLSLSP
light: DIVMTQSPATLSLSPGERATLSCTSSQSVYHANWLSWFQQKPGQPPKLLIYWASTLAYGVPSRFSGSGSGTDFTLTISSLQPEDAATYYCAGGYGGGRYAFGQGTKVEIKRTVAAPSVFIFPPSDEQLKSGTASVVCLLNNFYPREAKVQWKVDNALQSGNSQESVTEQDSKDSTYSLSSTLTLSKADYEKHKVYACEVTHQGLSSPVTKSFNRGEC
B2: M103205H795-SG178/M103202L889-SK1 (antibody, human IgG1, kappa)
heavy: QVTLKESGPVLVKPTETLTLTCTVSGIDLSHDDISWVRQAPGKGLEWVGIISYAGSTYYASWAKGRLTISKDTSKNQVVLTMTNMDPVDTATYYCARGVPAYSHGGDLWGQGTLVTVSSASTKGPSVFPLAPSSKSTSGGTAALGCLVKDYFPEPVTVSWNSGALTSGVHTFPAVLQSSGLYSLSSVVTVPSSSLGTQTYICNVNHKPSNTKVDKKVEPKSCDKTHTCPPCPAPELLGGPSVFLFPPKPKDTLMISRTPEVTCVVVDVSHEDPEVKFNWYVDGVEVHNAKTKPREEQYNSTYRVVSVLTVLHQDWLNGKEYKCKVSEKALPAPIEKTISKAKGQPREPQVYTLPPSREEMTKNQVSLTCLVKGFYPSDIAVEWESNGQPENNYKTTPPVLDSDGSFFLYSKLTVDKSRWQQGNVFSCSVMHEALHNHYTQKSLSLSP
light: DIVMTQSPATLSLSPGERATLSCTSSQSVYHANWLSWFQQKPGQPPKLLIYWASTLAYGVPSRFSGSGSGTDFTLTISSLQPEDAATYYCAGGYGGGRYAFGQGTKVEIKRTVAAPSVFIFPPSDEQLKSGTASVVCLLNNFYPREAKVQWKVDNALQSGNSQESVTEQDSKDSTYSLSSTLTLSKADYEKHKVYACEVTHQGLSSPVTKSFNRGEC
notes: also called N325E
B3: M103205H795-SG179/M103202L889-SK1 (antibody, human IgG1, kappa)
heavy: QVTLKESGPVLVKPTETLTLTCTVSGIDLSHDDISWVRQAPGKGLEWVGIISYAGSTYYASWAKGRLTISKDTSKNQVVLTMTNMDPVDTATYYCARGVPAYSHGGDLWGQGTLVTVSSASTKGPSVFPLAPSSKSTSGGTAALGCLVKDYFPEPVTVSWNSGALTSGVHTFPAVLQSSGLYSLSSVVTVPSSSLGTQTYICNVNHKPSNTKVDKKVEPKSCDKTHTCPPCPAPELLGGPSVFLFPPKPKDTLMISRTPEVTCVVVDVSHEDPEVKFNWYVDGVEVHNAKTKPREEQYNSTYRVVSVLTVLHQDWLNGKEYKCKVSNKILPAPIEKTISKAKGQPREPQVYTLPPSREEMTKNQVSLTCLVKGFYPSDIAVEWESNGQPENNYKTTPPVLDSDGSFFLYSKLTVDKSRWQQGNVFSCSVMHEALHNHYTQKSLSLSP
light: DIVMTQSPATLSLSPGERATLSCTSSQSVYHANWLSWFQQKPGQPPKLLIYWASTLAYGVPSRFSGSGSGTDFTLTISSLQPEDAATYYCAGGYGGGRYAFGQGTKVEIKRTVAAPSVFIFPPSDEQLKSGTASVVCLLNNFYPREAKVQWKVDNALQSGNSQESVTEQDSKDSTYSLSSTLTLSKADYEKHKVYACEVTHQGLSSPVTKSFNRGEC
notes: also called A327I

Tests used:
[1] = target: T1, human FcγRIIIaV extracellular domain, C-terminal His-tag (human, UniProt P08637 17-208); assay: SPR (BIACORE); KD of SG1 / KD of variant;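 note: relative to parent M103205H795-SG1 carrying the SG1 human heavy chain constant region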
T1 construct: also called FcgRIIIaV; not shown: His-tag added to C-terminus
Experimental: (§1) The kinetic analysis of interactions between these antibodies and FcγR was carried out using BIACORE® T200 or BIACORE® 4000 (GE Healthcare). HBS-EP+ (GE Healthcare) was used as the running buffer, and the measurement temperature was set to 25° C. A chip produced by immobilizing Protein A. Protein A/G or mouse anti-human IgG kappa light chain (BD Biosciences) onto a Series S Sensor Chip CM4 or CM5 (GE Healthcare) by the amine-coupling method was used. […] After the measurement, the antibody captured on the chip was washed off by allowing reaction with 10 mM glycine-HCl, pH1.5 and 25 mM NaOH so that the chip was regenerated and used repeatedly. The sensorgrams obtained as measurement results were analyzed by the 1:1 Langmuir binding model using the BIACORE® Evaluation Software to calculate the binding rate constant ka (L/mol/s) and dissociation rate constant kd (l/s), and the dissociation constant KD (mol/L) was calculated from these values. […] Regarding such interactions, KD values were calculated using the following 1:1 binding model described in BIACORE® T100 Software Handbook BR1006-48 Edition AE.
(§2) The behavior of interacting molecules according to the 1:1 binding model on BIACORE® can be described by Equation 1: Req=C·R max/(KD+C)+RI, wherein, Req is a plot of steady-state binding levels to analyte concentration. C is concentration, RI is bulk refractive index contribution in the sample, and Rmax is analyte binding capacity of the surface. When this equation is rearranged, KD can be expressed as Equation 2: KD=C·Rmax/(Req−RI)−C. KD can be calculated by substituting the values of Rmax, RI, and C into Equation 1 or Equation 2. From the current measurement conditions, RI=0, C=2 μmol/L can be used.

[2] = target: T2, human FcγRIIb extracellular domain, C-terminal His-tag (human, UniProt P31994 43-217); assay: SPR (BIACORE); KD of SG1 / KD of variant;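 note: relative to parent M103205H795-SG1 carrying the SG1 human heavy chain constant region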
T2 construct: also called humanFcgRIIb; not shown: His-tag added to C-terminus
T2 sequence: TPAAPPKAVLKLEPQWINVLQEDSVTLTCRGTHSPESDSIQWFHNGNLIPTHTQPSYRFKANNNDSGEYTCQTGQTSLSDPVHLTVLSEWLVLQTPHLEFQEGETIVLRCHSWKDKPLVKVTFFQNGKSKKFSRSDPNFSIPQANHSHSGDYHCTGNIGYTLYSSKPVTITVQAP
Experimental: as §1, §2

[3] = target: T3, cynomolgus monkey FcγRIIa3 extracellular domain, C-terminal His-tag (cynomolgus monkey); assay: SPR (BIACORE); KD of SG1 / KD of variant;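 note: relative to parent M103205H795-SG1 carrying the SG1 human heavy chain constant region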
T3 construct: also called cyno FcγRIIa3; cynoFcgRIIa3; not shown: His-tag added to C-terminus
T3 chain: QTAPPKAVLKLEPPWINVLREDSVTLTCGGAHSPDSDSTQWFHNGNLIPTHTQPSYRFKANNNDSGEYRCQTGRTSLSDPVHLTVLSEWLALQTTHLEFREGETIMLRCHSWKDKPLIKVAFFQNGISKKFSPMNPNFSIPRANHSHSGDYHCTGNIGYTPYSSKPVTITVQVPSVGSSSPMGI
Experimental: as §1, §2

[4] = target: T4, human FcγRIIaH extracellular domain, C-terminal His-tag (human, UniProt P12318 34-217); assay: SPR (BIACORE); KD of SG1 / KD of variant;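 note: relative to parent M103205H795-SG1 carrying the SG1 human heavy chain constant region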
T4 construct: also called human FcγRIIa (type H); FcgRIIaH; not shown: His-tag added to C-terminus
T4 sequence: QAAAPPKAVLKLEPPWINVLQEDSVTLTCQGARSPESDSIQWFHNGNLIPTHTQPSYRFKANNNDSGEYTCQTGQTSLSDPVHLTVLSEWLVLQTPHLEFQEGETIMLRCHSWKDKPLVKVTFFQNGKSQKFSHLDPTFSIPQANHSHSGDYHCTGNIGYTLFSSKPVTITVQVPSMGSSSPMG
Experimental: as §1, §2

[5] = target: T5, human FcγRIIaR extracellular domain, C-terminal His-tag (human, UniProt P12318 34-217); assay: SPR (BIACORE); KD of SG1 / KD of variant
T5 construct: also called human FcγRIIa (type R); FcgRIIaR; not shown: His-tag added to C-terminus
T5 chain: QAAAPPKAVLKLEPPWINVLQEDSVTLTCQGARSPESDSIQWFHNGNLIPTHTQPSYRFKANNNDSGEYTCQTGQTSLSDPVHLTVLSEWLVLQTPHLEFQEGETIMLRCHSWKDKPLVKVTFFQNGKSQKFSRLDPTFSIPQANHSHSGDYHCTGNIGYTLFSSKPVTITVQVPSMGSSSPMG
Experimental: as §1, §2

[6] = target: T6, cynomolgus monkey FcγRIIb extracellular domain, C-terminal His-tag (cynomolgus monkey); assay: SPR (BIACORE); KD of SG1 / KD of variant
T6 construct: also called cyno FcγRIIb; cynoFcγRIIb; not shown: His-tag added to C-terminus
T6 chain: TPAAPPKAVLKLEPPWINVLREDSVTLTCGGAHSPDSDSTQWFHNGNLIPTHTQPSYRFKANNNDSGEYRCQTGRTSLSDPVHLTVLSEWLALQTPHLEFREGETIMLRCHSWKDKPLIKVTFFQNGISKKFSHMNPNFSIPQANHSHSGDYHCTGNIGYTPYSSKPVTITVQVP
Experimental: as §1, §2

[7] = target: T7, cynomolgus monkey FcγRIIa2 extracellular domain, C-terminal His-tag (cynomolgus monkey); assay: SPR (BIACORE); KD of SG1 / KD of variant
T7 construct: also called cyno FcγRIIa2; cynoFcgRIIa2; not shown: His-tag added to C-terminus
T7 chain: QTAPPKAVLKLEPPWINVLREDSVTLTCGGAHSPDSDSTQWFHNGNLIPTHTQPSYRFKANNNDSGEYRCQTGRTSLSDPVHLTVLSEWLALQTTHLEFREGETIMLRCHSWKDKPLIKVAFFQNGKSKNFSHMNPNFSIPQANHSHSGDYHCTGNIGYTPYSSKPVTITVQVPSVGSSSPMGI
Experimental: as §1, §2

[8] = target: T8, cynomolgus monkey FcγRIIa1 extracellular domain, C-terminal His-tag (cynomolgus monkey); assay: SPR (BIACORE); KD of SG1 / KD of variant
T8 construct: also called cyno FcγRIIa1; cynoFcgRIIa1; not shown: His-tag added to C-terminus
T8 chain: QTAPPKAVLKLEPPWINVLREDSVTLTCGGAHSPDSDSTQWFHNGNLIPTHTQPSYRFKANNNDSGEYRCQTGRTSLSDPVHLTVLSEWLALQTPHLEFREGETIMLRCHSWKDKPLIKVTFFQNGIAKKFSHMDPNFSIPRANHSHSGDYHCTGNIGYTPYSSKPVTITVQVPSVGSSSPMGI
Experimental: as §1, §2

[9] = target: T9, cynomolgus monkey FcγRIIIaS extracellular domain, C-terminal His-tag (cynomolgus monkey, UniProt A3RFZ7 21-206 (rhesus entry)); assay: SPR (BIACORE); KD of SG1 / KD of variant
T9 construct: also called cyno FcγRIIIaS; cynoFcγRIIIaS; not shown: His-tag added to C-terminus
Experimental: as §1, §2

[10] = target: T10, cynomolgus monkey FcγRIIa2 extracellular domain, C-terminal His-tag (cynomolgus monkey); assay: SPR; FcgR bound per captured antibody, normalized to SG1
T10 construct: also called cyno FcγRIIa2; FcgRIIa2
T10 chain: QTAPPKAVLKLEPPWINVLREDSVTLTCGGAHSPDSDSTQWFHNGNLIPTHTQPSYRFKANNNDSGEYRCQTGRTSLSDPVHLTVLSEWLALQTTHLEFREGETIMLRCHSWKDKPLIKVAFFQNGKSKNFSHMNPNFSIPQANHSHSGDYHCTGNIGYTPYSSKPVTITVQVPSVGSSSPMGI
Experimental: as §1
(§3) The value of the amount of FcγR binding was obtained by dividing the amount of FcγR bound by the amount of each antibody captured.

[11] = target: T11, cynomolgus monkey FcγRIIa1 extracellular domain, C-terminal His-tag (cynomolgus monkey); assay: as above
T11 construct: also called cyno FcγRIIa1; FcgRIIa1
T11 chain: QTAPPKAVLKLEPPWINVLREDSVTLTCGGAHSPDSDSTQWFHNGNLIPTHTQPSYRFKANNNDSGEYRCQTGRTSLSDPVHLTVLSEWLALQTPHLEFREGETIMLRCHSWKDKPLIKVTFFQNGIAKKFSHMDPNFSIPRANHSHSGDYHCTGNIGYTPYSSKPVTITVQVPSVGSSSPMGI
Experimental: as §1, §3

[12] = target: T12, cynomolgus monkey FcγRIIb extracellular domain, C-terminal His-tag (cynomolgus monkey); assay: as above
T12 construct: also called cyno FcγRIIb; cynoFcγRIIb
T12 chain: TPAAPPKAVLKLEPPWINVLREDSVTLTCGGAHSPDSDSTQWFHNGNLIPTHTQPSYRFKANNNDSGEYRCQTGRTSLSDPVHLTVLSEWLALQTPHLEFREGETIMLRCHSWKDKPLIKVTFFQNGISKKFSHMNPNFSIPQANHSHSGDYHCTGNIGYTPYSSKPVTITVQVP
Experimental: as §1, §3

[13] = target: T13, cynomolgus monkey FcγRIIa3 extracellular domain, C-terminal His-tag (cynomolgus monkey); assay: as above
T13 construct: also called cyno FcγRIIa3; FcgRIIa3
T13 chain: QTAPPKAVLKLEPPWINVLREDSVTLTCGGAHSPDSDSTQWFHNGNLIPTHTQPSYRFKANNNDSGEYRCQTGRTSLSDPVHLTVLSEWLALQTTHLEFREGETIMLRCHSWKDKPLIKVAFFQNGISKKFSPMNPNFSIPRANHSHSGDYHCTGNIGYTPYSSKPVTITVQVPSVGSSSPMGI
Experimental: as §1, §3

[14] = target: T14, cynomolgus monkey FcγRIIIaS extracellular domain, C-terminal His-tag (cynomolgus monkey, UniProt Q8SPW2 21-206 at identity 1.00)); assay: as above
T14 construct: also called cyno FcγRIIIaS; FcgRIIIaS
T14 chain: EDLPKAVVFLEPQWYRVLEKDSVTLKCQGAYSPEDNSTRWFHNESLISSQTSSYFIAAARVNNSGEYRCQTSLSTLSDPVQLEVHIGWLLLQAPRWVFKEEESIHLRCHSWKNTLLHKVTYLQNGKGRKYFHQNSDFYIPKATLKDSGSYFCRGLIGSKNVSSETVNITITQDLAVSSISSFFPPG
Experimental: as §1, §3

T1 sequence (P08637 17-208 F176V): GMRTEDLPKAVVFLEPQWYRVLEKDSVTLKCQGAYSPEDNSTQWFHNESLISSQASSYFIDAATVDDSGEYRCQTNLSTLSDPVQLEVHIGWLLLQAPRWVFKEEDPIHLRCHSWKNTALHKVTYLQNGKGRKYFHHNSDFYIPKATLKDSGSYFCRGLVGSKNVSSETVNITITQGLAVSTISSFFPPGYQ

Binder	KD fold (SG1 = 1) [1] [fold]	KD fold (SG1 = 1) [2] [fold]	KD fold (SG1 = 1) [3] [fold]	KD fold (SG1 = 1) [4] [fold]	KD fold (SG1 = 1) [5] [fold]	KD fold (SG1 = 1) [6] [fold]	KD fold (SG1 = 1) [7] [fold]	KD fold (SG1 = 1) [8] [fold]	KD fold (SG1 = 1) [9] [fold]	amount of FcgR binding (SG1 = 100) [10] [SG1 = 100]	amount of FcgR binding (SG1 = 100) [11] [SG1 = 100]	amount of FcgR binding (SG1 = 100) [12] [SG1 = 100]	amount of FcgR binding (SG1 = 100) [13] [SG1 = 100]	amount of FcgR binding (SG1 = 100) [14] [SG1 = 100]
B1	0.45	4.5	14.2	3.3	5.5	7.2	7	4	0.33					
B2										21	22	26	29	36
B3										17	19	19	28	48
